Experimental data from article PMC2148189 (The Journal of Cell Biology, 1999).

T1: GST–ponsin-2-C (the COOH-terminal half) (mouse, UniProt Q62417-3 401-724)
T1 sequence (looked up): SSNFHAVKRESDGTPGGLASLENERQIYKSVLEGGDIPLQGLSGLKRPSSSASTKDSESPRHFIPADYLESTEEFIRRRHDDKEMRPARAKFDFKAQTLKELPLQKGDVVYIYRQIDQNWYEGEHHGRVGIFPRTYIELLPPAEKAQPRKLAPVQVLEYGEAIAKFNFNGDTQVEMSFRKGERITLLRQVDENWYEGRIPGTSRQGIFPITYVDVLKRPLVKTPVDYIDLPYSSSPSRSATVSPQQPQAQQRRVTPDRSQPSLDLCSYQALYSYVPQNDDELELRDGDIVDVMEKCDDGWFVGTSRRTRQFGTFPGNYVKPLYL

T2: GST–ponsin-2-F (the full length) (mouse, UniProt Q62417-3 1-724)
T2 sequence (looked up): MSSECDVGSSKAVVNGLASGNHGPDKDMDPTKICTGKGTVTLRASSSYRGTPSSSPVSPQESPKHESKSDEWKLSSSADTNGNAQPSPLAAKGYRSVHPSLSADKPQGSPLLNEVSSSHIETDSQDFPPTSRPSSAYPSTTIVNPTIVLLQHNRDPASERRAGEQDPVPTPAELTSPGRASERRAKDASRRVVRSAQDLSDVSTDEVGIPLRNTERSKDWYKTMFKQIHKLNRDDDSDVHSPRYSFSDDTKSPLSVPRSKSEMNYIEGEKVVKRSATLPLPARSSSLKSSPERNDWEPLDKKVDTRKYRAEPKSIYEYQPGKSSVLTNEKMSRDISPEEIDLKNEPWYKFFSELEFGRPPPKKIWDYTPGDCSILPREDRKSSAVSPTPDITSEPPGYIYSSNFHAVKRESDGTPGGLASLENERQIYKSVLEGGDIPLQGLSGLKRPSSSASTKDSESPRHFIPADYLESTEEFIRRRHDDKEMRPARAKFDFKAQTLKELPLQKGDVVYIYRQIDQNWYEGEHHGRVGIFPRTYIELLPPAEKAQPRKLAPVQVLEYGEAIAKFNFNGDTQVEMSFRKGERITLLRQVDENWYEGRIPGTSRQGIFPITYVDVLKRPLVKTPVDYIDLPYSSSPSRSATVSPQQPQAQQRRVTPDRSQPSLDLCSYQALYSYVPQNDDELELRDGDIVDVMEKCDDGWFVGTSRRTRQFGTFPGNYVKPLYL

B1: His6–l-afadin-C199 (domain or fragment, UniProt O35889-1 1631-1829, looked up)
chain: DRVRQEEDGRHQEEERVKRDAEEKRRQEEGYYSRLEAERRRQHEEAARRLLEPEEPGLSRPPLPQDYEPPSQSSAPSAPPPPPQRNASYLKTQVLSPDSLFTAKFVAYDDDDEEENYVPAGPNSYSGSAGTTAGTYDAPRDTREKLSRSQDADLPGSSGAPENLTFRERQRLFSQGQDVSDKVKASRKLTELENELNTK
B2: GST–ponsin-2-SH3(2+3) (the second and third SH3 domains) (domain or fragment, mouse, UniProt Q62417-3 543-724, looked up)
chain: AEKAQPRKLAPVQVLEYGEAIAKFNFNGDTQVEMSFRKGERITLLRQVDENWYEGRIPGTSRQGIFPITYVDVLKRPLVKTPVDYIDLPYSSSPSRSATVSPQQPQAQQRRVTPDRSQPSLDLCSYQALYSYVPQNDDELELRDGDIVDVMEKCDDGWFVGTSRRTRQFGTFPGNYVKPLYL

Legend:
Assay in all cases: pull-down
[1] = biological target: T1, GST–ponsin-2-C (the COOH-terminal half)
[2] = biological target: T2, GST–ponsin-2-F (the full length)
His6–l-afadin-C199 = biological target: B1

Row | Binder | binding result [1] | binding result [2] | binding result (His6–l-afadin-C199)
1 | B1 | binds | binds | 
2 | B2 |  |  | binds
